According to patent publication US20250084398A1, “SYSTEMS FOR MODULATING DRUG METABOLISM BY CELLS, METHODS AND COMPOSITIONS THEREOF” (priority 2021, published 2025):
Positions count from the first letter of the chain named. In names and notes the source's numbering stands.

Assays:
[1] = mice, cited from earlier work
[2] = replacement of carboxylate-contacting residue; cited from earlier work
GUS enzyme [3] = test: GUS assay: GUS specific activity in bacterial cultures, PNPG substrate, absorbance at 410 nm; assay type: cell-based, E. coli
Protocol: The GUS activity is performed as previously described elsewhere, including all required assay controls. Briefly, bacterial cultures grow to reach OD600 of 0.6. Once reached the targeted growth phase, the culture is transduced with the GusR_K125A-expressing vector. One hour later, the bacterial cultures are added to the assay reaction, along with the substrate (PNPG) and the assay buffer. The assay reaction is incubated at 37° C. for 6 hours and the activity of the GUS operon is monitored by the presence of the hydrolysis product (PNP) by measuring the absorbance at 410 nm. The arbitrary units of the GUS operon specific activity are calculated as follows: […]
Inhibition of the GUS activity using the GusR_K125A mutant was next evaluated by the inventors. More specifically, two E. coli bacterial hosts were used: BW25113 and MG1655. A plasmid that expresses the mutant repressor K125A was introduced into each of these hosts (BW25113 K125A and MG1655 K125A). The activity of the GUS operon was determined in the absence (−) or presence (+) of the GUS operon inducer PNPG. The specific units were calculated as described above. As shown by FIG. 4, GUS activity is inhibited in the presence of the dominant negative mutant repressor K125A in two bacterial hosts.

HL29 (ATCC HTB-38) cells = test: Viability of human colorectal adenocarcinoma cells incubated 48 hr with SN38G-treated bacterial lysates (XTT viability assay); assay type: cell-based
Protocol: Two BW25113 bacterial cultures were used: Vector bacteria expressing empty vector, and K125A bacteria containing the DOIN vector expressing GusR mutant repressor K125A. The cultures were incubated with PNPG to induce the GUS operon and were then incubated with the indicated SN-38G (SantaCruz, 212931A) concentrations, followed by lysis of the bacteria. HL29 (ATCC® HTB-38™) cells were maintained according to the manufacture instructions and incubated for 48 hr with the different bacterial extractions. The viability of the cells, incubated with the bacterial lysates, were determined using the XTT viability assay, in three independent biological repeats using four replicates.
GusR mutant K125A reduces the cytotoxicity of SN38 by inhibiting the metabolism of SN38G by the bacterial GUS, in an enzyme concentration-dependent manner. The study was performed as described in FIGURE, with the following modifications: The cultures were incubated with PNPG to induce the GUS operon, diluted as indicated, followed by incubation with 1 μM of SN-38G, and subsequently, lysis of the bacteria. The viability of the cells was determined as above.
Bacteria (WT and GUS-inhibitor producing bacteria) are grown and induced using PNPG as described above. Following induction, the bacteria are lysed, and extracts are incubated with SN-38G or PNPG. At the end of the incubation period, the PNPG-incubated bacterial extracts are taken to determine the activity of the GUS. In parallel, the SN-38G-incubated bacterial extracts are added to HT29 cell culture to determine cytotoxicity and CC50.
The rate of SN38G conversion to SN38 by the bacterial GUS in the samples is dependent on the reaction conditions (e.g., GUS enzyme activity, substrate concentration etc.), thus the resulting samples contained different concentrations of SN38. The samples were then incubated with HL29, human colorectal adenocarcinoma cell-line, and the viability of the cells was determined. Different concentrations of SN38G and bacteria were examined to evaluate their effect on the cytotoxicity of SN38. […]

GUS enzyme [4] = conditions: induced with 1 mM PNPG; cited from earlier work
[5] = test system: E. coli K-12 BW25113 and E. coli K12 MG1655; test: TFU assay: transduction efficiency of phage-based particles into bacterial hosts; assay type: cell-based; conditions: 1 hr incubation with lysate
Protocol: FIG. 6. Transduction of the modulatory component into different microbiome isolates Transductions (TFU/ml) of the DOIN vector into microbiome isolates was determined using the TFU assay, as described previously. Test bacteria culture (MG1655 (grey bars), BW25113 (white bars)) was grown to reach mid-exponential growth phase and incubated for 1 hr with a lysate of transducing particles (modified bacteriophages) containing the DOIN vector expressing GusR K125A_CRISPR, used as the modulatory component. Ten-fold serial dilutions were plated in duplicates on selective plates, which only bacteria that were transduced were able to grow on. Dashed grey horizontal line indicates the assay limit of detection. Data represent at least two independent experiments.
The lysate titer is determined using the transducing forming units (TFU) assay as previously described elsewhere.
The produced lysates are used to transduce each of the abovementioned bacterial hosts, and the transduction efficiencies for each strain is determined by the TFU assay.
More specifically, phage-based particle lysate was prepared as described above. The transduction efficiency of the particles against the indicated bacterial host above was determined using the TFU assay, as described previously, and presented in Table 2. The tail used for transduction is TC1 (TC1 as denoted by SEQ ID NO: 4).

For `CCc1c2c(nc3ccc(O)cc13)-c1cc3c(c(=O)n1C2)COC(=O)[C@]3(O)CC` [SN38], the “time to peak concentration of SN38” value ([1]; after administration of Irinotecan 80 mg/kg) is listed as 2 h and the “peak concentration of SN38” value ([1]; intestine, Irinotecan 80 mg/kg) is listed as “around 1 μg/gr tissue weight”.

B1: K125A GusR (protein)
chain: MMDNMQTEAQPTRTRILNAAREIFSENGFHSASMKAICKSCAISPGTLYHHFISKEALIQAIILQDQERALARFREPIEGIHFVDYMVESIVSLTHEAFGQRALVVEIMAEGMRNPQVAAMLKNAHMTITEFVAQRMRDAQQKGEISPDINTAMTSRLLLDLTYGVLADIEAEDLAREASFAQGLRAMIGGILTAS
In the case of B1, the “affinity to the GUS ligand” value [2] is listed as “significantly lower affinity”, the “GUS specific activity lower than in empty vector-expressing bacteria” value (GUS enzyme [3]; samples of the cytotoxicity study (BW25113)) is listed as “around 10 fold” and the “GUS activity (specific activity, FIG. 4)” value (GUS enzyme [3]; two bacterial hosts, BW25113 and MG1655, absence or presence of PNPG) is listed as “inhibited”. For the same molecule, the “rescue of cells from the toxic effect of SN38 (FIG. 9)” value (HL29 (ATCC HTB-38) cells; SN38G 0.1 μM, BW25113 bacteria) was “completely rescued”, the “cells rescued (viability, FIG. 9)” value (HL29 (ATCC HTB-38) cells; SN38G 1 μM, BW25113 bacteria, un-diluted) was 60% and the “cells rescued from SN38 toxicity (FIG. 10)” value (HL29 (ATCC HTB-38) cells; SN38G 1 μM, bacteria 6-fold diluted) was roughly 100%. For the same molecule, the “GUS activity of bacterial cells containing an expression plasmid” value (GUS enzyme [4]) was “no GUS activity” and the “Transduction into microbiome isolates (FIG. 6)” value [5] was “successful transduction”.

B2: Y164F GusR (protein)
chain: B1 chain with A125K, Y164F
In the case of B2, the “reduction of GUS activity (FIG. 7)” value (GUS enzyme [3]; BW25113 bacteria) is reported as 34 fold and the “reduction of GUS activity (FIG. 7)” value (GUS enzyme [3]; MG1655 bacteria) is reported as roughly 1.5 fold.
